Where only a bound is given, the exact number is not on record here.

Broadly, the EC50 is the concentration at which the effect is half-maximal. A word on the Kd: it is a measure of binding affinity in units of concentration.

In test [1] the target is cynomolgus monkey IL-36R variant 1 (on cells) (cynomolgus monkey). As to the kind of experiment: cell-based or functional assay.
For test [2], the target named is T1, human IL-36R (on cells) (human, UniProt Q9HB29 20-575).
T1 sequence (looked up): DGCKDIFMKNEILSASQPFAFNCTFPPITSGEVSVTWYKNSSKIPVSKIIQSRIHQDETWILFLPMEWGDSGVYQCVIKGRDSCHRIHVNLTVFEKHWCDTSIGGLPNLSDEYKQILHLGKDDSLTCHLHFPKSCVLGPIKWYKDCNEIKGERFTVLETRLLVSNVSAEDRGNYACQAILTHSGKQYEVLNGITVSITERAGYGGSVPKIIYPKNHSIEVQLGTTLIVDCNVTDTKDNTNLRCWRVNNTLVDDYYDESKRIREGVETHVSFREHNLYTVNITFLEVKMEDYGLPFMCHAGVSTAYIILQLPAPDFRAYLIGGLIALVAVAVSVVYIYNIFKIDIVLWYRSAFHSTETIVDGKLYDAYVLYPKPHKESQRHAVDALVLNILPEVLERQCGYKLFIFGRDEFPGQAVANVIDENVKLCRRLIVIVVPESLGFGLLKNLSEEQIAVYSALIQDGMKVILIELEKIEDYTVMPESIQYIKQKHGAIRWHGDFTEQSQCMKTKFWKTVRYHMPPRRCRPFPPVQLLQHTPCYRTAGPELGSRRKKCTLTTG
As to the kind of experiment: cell-based or functional assay.

Test [3] concerns the target T1, human IL-36R (on cells). The test can be described thus: cell-based or functional assay. The source holds these as a separate data set.
In test [4] the target is cynomolgus monkey IL-36R variant 2 (on cells) (cynomolgus monkey), A0A2K5. As to the kind of experiment: cell-based or functional assay.
cynomolgus monkey IL-36R variant 2 (on cells) (cynomolgus monkey), A0A2K5, sequence (chain, as listed by the source mutant): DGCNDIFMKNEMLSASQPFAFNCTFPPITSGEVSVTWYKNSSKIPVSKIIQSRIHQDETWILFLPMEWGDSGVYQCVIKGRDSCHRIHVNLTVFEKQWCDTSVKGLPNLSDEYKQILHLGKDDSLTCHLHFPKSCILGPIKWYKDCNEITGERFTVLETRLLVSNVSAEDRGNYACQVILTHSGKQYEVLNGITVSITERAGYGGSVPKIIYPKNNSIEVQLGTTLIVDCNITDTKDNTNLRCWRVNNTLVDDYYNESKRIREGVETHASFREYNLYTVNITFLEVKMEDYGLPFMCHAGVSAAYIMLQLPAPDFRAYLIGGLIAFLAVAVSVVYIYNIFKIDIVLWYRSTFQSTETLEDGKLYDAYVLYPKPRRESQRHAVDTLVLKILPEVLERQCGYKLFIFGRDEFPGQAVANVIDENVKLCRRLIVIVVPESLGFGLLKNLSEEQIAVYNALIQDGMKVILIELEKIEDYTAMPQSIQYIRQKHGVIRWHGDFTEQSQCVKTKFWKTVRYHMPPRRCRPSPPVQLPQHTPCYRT
Test [5] addresses cynomolgus monkey IL-36R variant 3 (on cells) (cynomolgus monkey), A0A2K5. As to the kind of experiment: cell-based or functional assay.
The target of test [6] is cynomolgus IL-36R (on cells, allelic variant not stated) (cynomolgus monkey), A0A2K5. The test can be described thus: cell-based or functional assay.
cynomolgus IL-36R (on cells, allelic variant not stated) (cynomolgus monkey), A0A2K5, sequence (chain, as listed by the source mutant): as above
Test [7] has as its target cynomolgus monkey IL-36R variant 1 (on cells) (cynomolgus monkey). The test can be described thus: flow cytometry on CHO-K cells co-expressing cynomolgus IL-36R variant 1 and cynomolgus IL-1RAcP. For orientation: A flow cytometer gives signals particle by particle.
Test [8] has as its target T1, human IL-36R (on cells). The test can be described thus: flow cytometry on CHO-K cells co-expressing human IL-36R and human IL-1RAcP. How it is done: The binding of antibodies to CHO-K cells stably co-expressing human IL-36R and human IL-1RAcP was examined. Cynomolgus IL-36R allelic variation was examined by Sanger sequencing, and four distinct allelic variants were identified within cynomolgus monkey populations. The binding of antibodies to CHO-K cells stably co-expressing cynomolgus monkey IL-36R variant 1 and cynomolgus monkey IL-1RAcP was also examined for APE6155 and APE7247. Each antibody was incubated with CHO cells harvested using accutase, washed, and seeded at 500,000 cells per well. Cells were incubated with antibodies at concentrations ranging from 33 nM-16 pM for 30 minutes at 4° C., and washed three times with FACS staining buffer. Cells were spun and aspirated, and then the incubated with 100 μl paraformaldehyde for 10 minutes at room temperature. Cells were again washed, aspirated, and stained with 100 μL of anti-human IgG Alexa 647 for 20 minutes at 4° C. Cells were resuspended in 100 μL FACS analysis buffer before analysis on the FACS Array (BD Biosciences).

The target in test [9] is T1, human IL-36R (on cells). The test can be described thus: cell-based or functional assay. The source holds these as a separate data set.
The target in test [10] is T2, extracellular domain of human IL-36R (human, UniProt Q9HB29 20-335).
T2 construct: extracellular domain; Immobilised on the chip in the BIACORE assay; soluble and bead-coupled in the KINEXA assay; also called soluble human IL-36R extracellular domain
T2 sequence (looked up): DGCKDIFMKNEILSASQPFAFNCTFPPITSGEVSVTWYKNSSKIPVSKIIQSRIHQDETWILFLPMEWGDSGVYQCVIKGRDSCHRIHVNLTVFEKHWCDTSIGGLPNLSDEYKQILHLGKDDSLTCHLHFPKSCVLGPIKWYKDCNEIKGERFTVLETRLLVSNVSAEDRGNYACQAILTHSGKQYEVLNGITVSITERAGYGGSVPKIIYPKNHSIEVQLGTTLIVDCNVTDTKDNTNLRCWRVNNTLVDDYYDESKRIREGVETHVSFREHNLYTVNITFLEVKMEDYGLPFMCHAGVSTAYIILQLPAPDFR
As to the kind of experiment: BIACORE T200 SPR, human IL-36R extracellular domain immobilised, antibody injected. On the procedure:
The binding affinities of various purified antibodies comprising immunoglobulin heavy chain (HC) and light chain (LC) polypeptides described herein were evaluated using BIACORE™ T200 […] assays. BIACORE™ T200 evaluation software (GE Healthcare, Buckinghamshire, United Kingdom) is used to determine antibody-antigen binding kinetics and affinity. The extracellular domain of human IL-36R was immobilized at approximately 100 RU onto a CMS sensor chip (GE Healthcare, Waukesha, Wis.) using amine coupling chemistry. HBS-EP+ buffer (0.01 M HEPES, 0.15 M NaCl, 3 mM EDTA, 0.05% Polysorbate, pH 7.6) (Teknova, Hollister, Calif.) was used to reconstitute each antibody at various concentrations Each antibody concentration was then injected for two to three minutes over immobilized antigen at a flow rate of 30 μL/min, and allowed to dissociate for 15 minutes. The surface was regenerated with 60 μL of 3 M MgCl₂ after each cycle. Association and dissociation kinetic constants (kon and koff) were fit globally using a 1:1 binding model with mass transport with the BIACORE™ T200 evaluation software in order to report on- and off-rates (ka and kd, respectively), as well as affinities (KD).
(Surface plasmon resonance follows binding to a sensor surface in real time, without labels.)

The target of test [11] is T2, extracellular domain of human IL-36R. As to the kind of experiment: KINEXA 3000 solution-phase equilibrium, soluble human IL-36R extracellular domain. On the procedure:
The binding affinities of various purified antibodies comprising immunoglobulin heavy chain (HC) and light chain (LC) polypeptides described herein also were evaluated using a KINEXA® 3000 assay (Sapidyne Instruments, Boise, Id.) assays. KINEXA® technology measures the amount of unbound/free antibody molecule in solution phase after incubation with varying concentrations of antigen. Measuring binding events in the solution phase with micro beads for maximized surface area avoids mass transport limitations and mobility effects inherent to methods that measure binding to a solid phase. For each experiment, 50 μg of soluble human or cyno IL-36R extracellular domain was amine-coupled to 50 mg of UltraLink Biosupport beads (Thermo Fisher Scientific, Waltham, Mass.). […] Antibody-antigen solution was then flowed over antigen-coupled beads at a rate of 0.25 mL/min. Free antibody captured by beads was detected using ALEXA FLUOR™ 647-conjugated AffiniPure Donkey Anti-Human IgG (H+L) (Jackson ImmunoResearch, West Grove, Pa.) (500 ng/ml). The KD and/or ABC (active binding concentration) of antibody was obtained from non-linear regression analysis using a one-site homogeneous binding model in the KINEXA™ Pro Software.

The target in test [12] is cyno IL-36R (BIACORE antigen of Table 4) (cynomolgus monkey). The test can be described thus: BIACORE T200 SPR, cyno IL-36R.

cynomolgus monkey IL-36R variant 3 (on cells) (cynomolgus monkey), A0A2K5, sequence (chain, as listed by the source mutant): as the sequence (chain, as listed by the source mutant) above

B1: Hzd 5D3 (APE6155) (antibody, V domains shown)
VH: QVQLVQSGAEVKKPGASVKVSCKASGYTFTNYWMNWVRQAPRQGLEWMGMFHPTGDVTRLNQKFKDRVTMTRDTSTSTVYMELSSLRSEDTAVYYCARTTSMIIGGFAYWGQGTLVTVSS
VL: DIVMTQTPLSLSVTPGQPASISCRSSKSLLHRNAITYFYWYLHKPGQPPQLLIYQMSNLASGVPDRFSGSGSGTDFTLKISRVEAEDVGVYYCAQNLELPLTFGGGTKVEIK
notes: also called APE6917; APE06155
With B1, the EC50 (nM), IL-8 luciferase reporter assay, 300 ng/ml IL-36γ (Cyno IL-36R variant 1) in [1] turned out to be 0.042 nM. Besides, in the test with human IL-36R (on cells) [2], the “EC50 (nM), IL-8 secretion by primary human monocytes, human IL-36α” value was 0.088 nM; the “EC50 (nM), IL-8 secretion by primary human monocytes, human IL-36β” value stood at 0.117 nM; the “EC50 (nM), IL-8 secretion by primary human monocytes, human IL-36γ” value amounted to 0.078 nM. For the same molecule, in the test with human IL-36R (on cells) [3], the “EC50 (nM), IL-8 secretion by primary human keratinocytes, 1 ng/ml human IL-36β” value was found to be 0.227 nM; the “EC50 (nM), IL-8 secretion by primary human keratinocytes, 10 ng/ml human IL-36α” value was determined as 0.125 nM; the “EC50 (nM), IL-8 secretion by primary human keratinocytes, 100 ng/ml human IL-36γ” value stood at 0.093 nM. Further, the EC50 (nM), IL-8 luciferase reporter assay, 300 ng/ml IL-36γ (Cyno IL-36R variant 2) in test [4] turned out to be 0.043 nM. In test [5], this molecule came in with an EC50 (nM), IL-8 luciferase reporter assay, 300 ng/ml IL-36γ (Cyno IL-36R variant 3) of 0.21 nM. Further, in [6], the EC50 (nM), HEK cyno IL-36R IL-8 luciferase reporter assay, 300 ng/ml cIL-36γ stood at 0.31 nM; the EC50 (nM), HEK cyno IL-36R IL-8 luciferase reporter assay, 2 µg/ml cIL-36α was found to be 0.08 nM; the EC50 (nM), HEK cyno IL-36R IL-8 luciferase reporter assay, 10 µg/ml cIL-36β stood at 0.13 nM; the EC50 (nM), IL-8 secretion by primary cynomolgus PBMCs, 10 ng/ml cyno IL-36β came to 1.5 nM. In test [6], this molecule displayed an EC50 (nM), IL-8 secretion by primary cynomolgus PBMCs, 50 ng/ml cyno IL-36α of 1.2 nM; an EC50 (nM), IL-8 secretion by primary cynomolgus PBMCs, 250 ng/ml cyno IL-36γ of 0.89 nM; an EC50 (nM), IL-8 secretion by primary cynomolgus keratinocytes, 10 ng/ml cyno IL-36β of 1.4 nM; an EC50 (nM), IL-8 secretion by primary cynomolgus keratinocytes, 50 ng/ml cyno IL-36α of 1.1 nM. This molecule also came in with an EC50 (nM), IL-8 secretion by primary cynomolgus keratinocytes, 250 ng/ml cyno IL-36γ in test [6] of 1.1 nM. The EC50 in test [7] is 2400 pM. This molecule also displayed an EC50 with human IL-36R (on cells) [8] of 1500 pM. In addition, in the test with human IL-36R (on cells) [9], the “EC50 (nM), HEK human IL-36R IL-8 luciferase reporter assay, 20 ng/ml hIL-36β” value turned out to be 0.22 nM; the “EC50 (nM), HEK human IL-36R IL-8 luciferase reporter assay, 50 ng/ml hIL-36α” value is 0.23 nM; the “EC50 (nM), HEK human IL-36R IL-8 luciferase reporter assay, 200 ng/ml hIL-36γ” value turned out to be 0.4 nM. Besides, the Kd in [10] stood at 71 pM. The molecule further showed a Kd in test [11] of 169 pM.

B2: Hzd 18D4 (APE7247) (antibody, V domains shown)
VH: DVQFQESGPGLVKPSQTLSLTCTVTGYSITADFAWNWIRQPPGKGLEWIGYISYSGDTNYNPSLKSRVTITRDTSKNQFSLKLSSVTAADTAVYFCAIRGPYSFTYWGQGTLVTVSS
VL: DIQMTQSPSSLSASVGDRVTITCRASQWINNYLNWYQQKPGKAPKLLIYYTSMLHSGVPSRFSPSGSGNDYTFTISSLQPEDIATYYCQQGHTLPWTFGGGTKVEIKR
notes: also called APE6903; APE07247
For the molecule B2, the EC50 (nM), IL-8 luciferase reporter assay, 300 ng/ml IL-36γ (Cyno IL-36R variant 1) in test [1] was 0.079 nM. Besides, the Kd in test [12] was less than 20 pM. For the same molecule, in the test with human IL-36R (on cells) [3], the “EC50 (nM), IL-8 secretion by primary human keratinocytes, 1 ng/ml human IL-36β” value was found to be 0.336 nM; the “EC50 (nM), IL-8 secretion by primary human keratinocytes, 10 ng/ml human IL-36α” value turned out to be 0.142 nM; the “EC50 (nM), IL-8 secretion by primary human keratinocytes, 100 ng/ml human IL-36γ” value worked out at 0.074 nM. Further, the EC50 in test [7] was 3300 pM. This molecule also displayed a half-maximal effective concentration (EC50) in the test with human IL-36R (on cells) [8] of 2800 pM. For the same molecule, in the test with human IL-36R (on cells) [9], the “EC50 (nM), HEK human IL-36R IL-8 luciferase reporter assay, 20 ng/ml hIL-36β” value was 0.114 nM; the “EC50 (nM), HEK human IL-36R IL-8 luciferase reporter assay, 50 ng/ml hIL-36α” value amounted to 0.066 nM; the “EC50 (nM), HEK human IL-36R IL-8 luciferase reporter assay, 200 ng/ml hIL-36γ” value is 0.104 nM. The Kd in test [10] was less than 20 pM. The same molecule returned a dissociation constant (Kd) in test [11] of 100 pM.

The values above are taken from US20200087408A1 (ANAPTYSBIO, published 2020).
